# Earlier results, collected in article PMC11036797.
# Columns and labels:
# [1] = biological target: FZD2 (Homo sapiens) (UniProt Q14332)
# [2] = biological target: nectin-3 (Homo sapiens) (UniProt Q9NQS3)
# [3] = biological target: FZD1 (Homo sapiens) (UniProt Q9UP38)
# [4] = biological target: CSPG4 (Homo sapiens) (UniProt Q6UVK1)
# [5] = biological target: FZD7 (Homo sapiens) (UniProt O75084)
# Sequence of FZD2 (Homo sapiens) (Q14332 24-565): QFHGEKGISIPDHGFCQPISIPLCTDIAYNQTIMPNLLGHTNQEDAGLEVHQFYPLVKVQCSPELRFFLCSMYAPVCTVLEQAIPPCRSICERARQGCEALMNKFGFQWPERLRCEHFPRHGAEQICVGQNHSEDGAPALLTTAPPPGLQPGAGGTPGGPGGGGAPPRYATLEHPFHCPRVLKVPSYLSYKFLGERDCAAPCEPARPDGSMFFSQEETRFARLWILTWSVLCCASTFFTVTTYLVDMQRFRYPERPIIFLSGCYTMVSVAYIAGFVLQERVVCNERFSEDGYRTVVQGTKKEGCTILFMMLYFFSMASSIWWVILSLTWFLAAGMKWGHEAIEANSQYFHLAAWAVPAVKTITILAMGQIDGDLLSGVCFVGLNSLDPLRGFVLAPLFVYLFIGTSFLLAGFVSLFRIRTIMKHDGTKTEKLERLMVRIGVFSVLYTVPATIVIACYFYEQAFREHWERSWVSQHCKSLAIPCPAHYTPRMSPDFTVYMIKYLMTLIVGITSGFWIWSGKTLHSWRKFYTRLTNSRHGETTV
# Sequence of nectin-3 (Homo sapiens) (Q9NQS3 58-549): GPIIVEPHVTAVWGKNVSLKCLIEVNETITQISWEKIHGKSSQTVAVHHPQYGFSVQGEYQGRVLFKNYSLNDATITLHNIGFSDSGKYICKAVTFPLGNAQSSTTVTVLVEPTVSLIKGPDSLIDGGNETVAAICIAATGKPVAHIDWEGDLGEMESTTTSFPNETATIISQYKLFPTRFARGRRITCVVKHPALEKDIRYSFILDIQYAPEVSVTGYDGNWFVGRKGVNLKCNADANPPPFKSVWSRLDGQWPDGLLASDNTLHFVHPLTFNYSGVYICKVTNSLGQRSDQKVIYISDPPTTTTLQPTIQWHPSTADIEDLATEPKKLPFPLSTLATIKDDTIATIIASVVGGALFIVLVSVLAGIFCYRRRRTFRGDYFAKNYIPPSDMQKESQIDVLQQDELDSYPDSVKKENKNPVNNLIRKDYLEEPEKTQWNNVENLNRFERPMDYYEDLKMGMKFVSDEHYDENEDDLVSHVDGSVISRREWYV
# Sequence of CSPG4 (Homo sapiens) (Q6UVK1 30-2322): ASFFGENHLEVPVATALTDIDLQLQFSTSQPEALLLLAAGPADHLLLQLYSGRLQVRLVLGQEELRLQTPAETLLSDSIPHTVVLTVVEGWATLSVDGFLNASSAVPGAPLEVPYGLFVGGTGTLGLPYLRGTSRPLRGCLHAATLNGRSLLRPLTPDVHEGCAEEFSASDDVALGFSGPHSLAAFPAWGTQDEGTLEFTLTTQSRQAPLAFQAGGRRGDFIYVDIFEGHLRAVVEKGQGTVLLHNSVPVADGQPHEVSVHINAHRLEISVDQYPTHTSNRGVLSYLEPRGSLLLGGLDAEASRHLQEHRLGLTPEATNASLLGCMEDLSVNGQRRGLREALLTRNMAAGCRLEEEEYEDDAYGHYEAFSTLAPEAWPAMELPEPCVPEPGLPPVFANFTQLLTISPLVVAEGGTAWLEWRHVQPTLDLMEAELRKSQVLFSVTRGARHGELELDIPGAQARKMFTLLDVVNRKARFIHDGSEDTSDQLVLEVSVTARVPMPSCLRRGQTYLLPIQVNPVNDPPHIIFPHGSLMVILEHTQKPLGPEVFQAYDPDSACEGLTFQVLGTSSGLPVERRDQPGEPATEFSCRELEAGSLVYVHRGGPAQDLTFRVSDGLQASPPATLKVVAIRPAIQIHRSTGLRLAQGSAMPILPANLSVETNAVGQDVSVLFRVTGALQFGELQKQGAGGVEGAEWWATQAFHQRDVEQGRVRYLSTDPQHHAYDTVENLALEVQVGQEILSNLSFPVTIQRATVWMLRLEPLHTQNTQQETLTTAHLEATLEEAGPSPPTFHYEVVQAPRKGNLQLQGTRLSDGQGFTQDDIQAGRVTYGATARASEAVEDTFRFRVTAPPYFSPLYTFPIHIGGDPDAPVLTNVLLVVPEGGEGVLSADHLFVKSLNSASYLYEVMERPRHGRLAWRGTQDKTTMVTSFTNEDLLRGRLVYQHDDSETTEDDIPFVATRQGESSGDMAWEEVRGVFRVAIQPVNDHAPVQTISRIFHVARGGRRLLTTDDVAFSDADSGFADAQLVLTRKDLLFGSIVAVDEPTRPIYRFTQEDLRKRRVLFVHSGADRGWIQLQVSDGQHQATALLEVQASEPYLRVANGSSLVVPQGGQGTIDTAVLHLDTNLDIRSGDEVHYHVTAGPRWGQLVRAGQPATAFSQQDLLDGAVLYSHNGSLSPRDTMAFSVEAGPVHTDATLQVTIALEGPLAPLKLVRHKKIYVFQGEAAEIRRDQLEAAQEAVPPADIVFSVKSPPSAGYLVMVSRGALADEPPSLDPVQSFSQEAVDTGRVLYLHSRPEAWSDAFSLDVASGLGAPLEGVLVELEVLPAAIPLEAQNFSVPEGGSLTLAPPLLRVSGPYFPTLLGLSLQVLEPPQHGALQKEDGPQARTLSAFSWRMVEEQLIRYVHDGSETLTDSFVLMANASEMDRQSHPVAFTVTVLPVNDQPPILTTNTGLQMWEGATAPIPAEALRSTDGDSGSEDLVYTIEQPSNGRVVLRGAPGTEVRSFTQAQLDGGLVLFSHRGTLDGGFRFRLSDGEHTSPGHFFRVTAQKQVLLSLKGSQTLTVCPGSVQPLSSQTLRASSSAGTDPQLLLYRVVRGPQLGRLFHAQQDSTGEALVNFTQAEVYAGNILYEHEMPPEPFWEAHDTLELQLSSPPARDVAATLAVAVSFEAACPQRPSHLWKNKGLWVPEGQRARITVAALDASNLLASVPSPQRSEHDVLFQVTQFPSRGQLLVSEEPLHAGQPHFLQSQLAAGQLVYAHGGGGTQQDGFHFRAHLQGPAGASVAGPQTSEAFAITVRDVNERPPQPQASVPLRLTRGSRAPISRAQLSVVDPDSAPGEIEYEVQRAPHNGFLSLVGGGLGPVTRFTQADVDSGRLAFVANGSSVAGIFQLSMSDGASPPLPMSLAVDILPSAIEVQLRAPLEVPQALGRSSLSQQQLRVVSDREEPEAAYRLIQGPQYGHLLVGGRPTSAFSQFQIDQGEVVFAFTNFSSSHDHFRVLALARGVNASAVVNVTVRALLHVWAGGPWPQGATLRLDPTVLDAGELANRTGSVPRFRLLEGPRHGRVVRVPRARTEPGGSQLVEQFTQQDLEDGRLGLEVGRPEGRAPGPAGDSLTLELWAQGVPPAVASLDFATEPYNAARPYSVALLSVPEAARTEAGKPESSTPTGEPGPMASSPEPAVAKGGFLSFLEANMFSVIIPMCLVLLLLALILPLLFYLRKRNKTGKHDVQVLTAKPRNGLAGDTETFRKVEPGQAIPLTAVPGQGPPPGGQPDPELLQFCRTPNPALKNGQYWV
# Sequence of FZD1 (Homo sapiens) (Q9UP38 70-647): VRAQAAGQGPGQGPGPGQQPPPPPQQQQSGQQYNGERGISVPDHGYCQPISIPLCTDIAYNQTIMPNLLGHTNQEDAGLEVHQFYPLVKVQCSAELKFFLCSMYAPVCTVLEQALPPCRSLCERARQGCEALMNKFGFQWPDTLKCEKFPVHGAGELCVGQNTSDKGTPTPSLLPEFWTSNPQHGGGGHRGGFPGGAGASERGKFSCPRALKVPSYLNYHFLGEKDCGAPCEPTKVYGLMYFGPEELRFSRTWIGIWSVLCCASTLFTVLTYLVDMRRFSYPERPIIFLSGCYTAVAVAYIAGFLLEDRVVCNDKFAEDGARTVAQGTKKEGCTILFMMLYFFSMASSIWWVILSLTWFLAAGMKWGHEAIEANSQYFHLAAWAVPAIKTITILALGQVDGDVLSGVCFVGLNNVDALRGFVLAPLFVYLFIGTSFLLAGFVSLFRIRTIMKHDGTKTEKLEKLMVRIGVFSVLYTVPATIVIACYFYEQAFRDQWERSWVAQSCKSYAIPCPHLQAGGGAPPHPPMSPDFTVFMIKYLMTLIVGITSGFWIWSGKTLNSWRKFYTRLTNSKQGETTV
substance,measurement,setting,value
TcdB1 (from UniProt P18177),Kd,[1],19 nM
same,Kd,[2],53 nM
same,Kd,[3],32 nM
same,Kd,[4],15.2 nM
same,Kd,[5],27 nM
